Values of other authors, collected in patent publication US8337823B2, “Modified macromolecule” (priority 2006, dated 2012).

Conditions: pH 4 and pH 5

Row | Substance | stability of the conjugate in acidic conditions
1 | α-methoxy-ω-{N-2-(3-hydroxypropyl-cholesterylcarbamate)-2-methyl-[1,3]dioxan-5-yl-amido}-polyethyleneglycol110 | not stable
2 | α-methoxy-ω-{N-(2-cholesteryloxy-[1,3]dioxolan-4-yl)methylamido)-polyethyleneglycol110 | very stable at pH 5 but moderately less stable at pH 4
3 | α-methoxy-ω-N-(2-octadecyloxy-[1,3]dioxolan-4-yl)methylamido}-polyethyleneglycol110 | good stability at both pH 4 and 5
4 | α-methoxy-ω-(N-(2-methyl-s-octadedcyloxy-[1,3]dioxan-5-yl)-amido}-polyethyleneglycol110 | not stable
